Here are results for 1 molecule from US20240026330A1 (FLUX THERAPEUTICS, published 2024).

Holding throughout (assay): cell-based or functional assay
Experiment [1] has as its target T1, UQCC2-nanoluc-alfa-tag-fusion.
T1 chain: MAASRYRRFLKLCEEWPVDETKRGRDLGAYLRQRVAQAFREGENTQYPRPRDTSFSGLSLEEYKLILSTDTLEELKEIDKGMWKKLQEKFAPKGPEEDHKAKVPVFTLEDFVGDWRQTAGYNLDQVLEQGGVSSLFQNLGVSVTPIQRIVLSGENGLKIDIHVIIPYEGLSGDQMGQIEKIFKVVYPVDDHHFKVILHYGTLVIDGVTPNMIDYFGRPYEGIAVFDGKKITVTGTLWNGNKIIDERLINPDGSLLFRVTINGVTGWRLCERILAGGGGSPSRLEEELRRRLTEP

Experiment [2] concerns the target COX6A2-nanoluc-alfa-tag-fusion.
Experiment [3] concerns the target T2, LYRM7-nanoluc-alfa-tag-fusion.
T2 chain: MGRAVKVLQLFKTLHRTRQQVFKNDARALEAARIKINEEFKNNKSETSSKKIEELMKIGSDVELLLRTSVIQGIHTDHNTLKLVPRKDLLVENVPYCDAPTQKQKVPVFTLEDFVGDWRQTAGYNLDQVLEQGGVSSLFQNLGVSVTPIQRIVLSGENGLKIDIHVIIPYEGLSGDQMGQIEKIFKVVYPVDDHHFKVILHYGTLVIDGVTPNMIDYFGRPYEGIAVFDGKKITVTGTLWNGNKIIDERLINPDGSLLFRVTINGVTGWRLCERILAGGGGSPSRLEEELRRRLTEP

B1: FireflyLuciferase-P2A-a_alfatag_nano-Cezanne (other)
chain: MEDAKNIKKGPAPFYPLEDGTAGEQLHKAMKRYALVPGTIAFTDAHIEVDITYAEYFEMSVRLAEAMKRYGLNTNHRIVVCSENSLQFFMPVLGALFIGVAVAPANDIYNERELLNSMGISQPTVVFVSKKGLQKILNVQKKLPIIQKIIIMDSKTDYQGFQSMYTFVTSHLPPGFNEYDFVPESFDRDKTIALIMNSSGSTGLPKGVALPHRTACVRFSHARDPIFGNQIIPDTAILSVVPFHHGFGMFTTLGYLICGFRVVLMYRFEEELFLRSLQDYKIQSALLVPTLFSFFAKSTLIDKYDLSNLHEIASGGAPLSKEVGEAVAKRFHLPGIRQGYGLTETTSAILITPEGDDKPGAVGKVVPFFEAKVVDLDTGKTLGVNQRGELCVRGPMIMSGYVNNPEATNALIDKDGWLHSGDIAYWDEDEHFFIVDRLKSLIKYKGYQVAPAELESILLQHPNIFDAGVAGLPDDDAGELPAAVVVLEHGKTMTEKEIVDYVASQVTTAKKLRGGVVFVDEVPKGLTGKLDARKIREILIKAKKGGKIAVTRLKGSGATNFSLLKQAGDVEENPGPRSGTGSSGEVQLQESGGGLVQPGGSLRLSCTASGVTISALNAMAMGWYRQAPGERRVMVAAVSERGNAMYRESVQGRFTVTRDFTNKMVSLQMDNLKPEDTAVYYCHVLEDRVDSFHDYWGQGTQVTVSSGAPGSGPPSFSEGSGGSRTPEKGFSDREPTRPPRPILQRQDDIVQEKRLSRGISHASSSIVSLARSHVSSNGGGGGSNEHPLEMPICAFQLPDLTVYNEDFRSFIERDLIEQSMLVALEQAGRLNWWVSVDPTSQRLLPLATTGDGNCLLHAASLGMWGFHDRDLMLRKALYALMEKGVEKEALKRRWRWQQTQQNKESGLVYTEDEWQKEWNELIKLASSEPRMHLGTNGANCGGVESSEEPVYESLEEFHVFVLAHVLRRPIVVVADTMLRDSGGEAFAPIPFGGIYLPLEVPASQCHRSPLVLAYDQAHFSALVSMEQKENTKEQAVIPLTDSEYKLLPLHFAVDPGKGWEWGKDDSDNVRLASVILSLEVKLHLLHSYMNVKWIPLSSDAQAPLAQ
For B1, the “fold increase in UQCC2 protein expression (NLuc signal divided by firefly luciferase signal, relative to control)” value in experiment [1] worked out at 2.87 fold. The “fold increase in COX6A2 protein expression (NLuc signal divided by firefly luciferase signal, relative to control)” value in experiment [2] was found to be 1.48 fold. In addition, the “fold increase in LYRM7 protein expression (NLuc signal divided by firefly luciferase signal, relative to control)” value in experiment [3] was determined as 1.39 fold.
